# Values quoted from earlier work in PMC6205161.
# Molecular target: apo-GLRX5 (Homo sapiens) (UniProt Q86SX6)
# Assay: thermophoresis
# Chain of UniProt Q86SX6 (Q86SX6 32-157): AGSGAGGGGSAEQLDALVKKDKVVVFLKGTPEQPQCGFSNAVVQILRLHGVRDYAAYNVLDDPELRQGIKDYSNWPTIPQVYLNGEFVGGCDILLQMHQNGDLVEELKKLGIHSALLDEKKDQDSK
row,Kd [nM],Substance
1,3000,BOLA3 (from UniProt Q53S33)
2,3000,BOLA1 (from UniProt Q9Y3E2)
